T1: Suc-LLVY-MCA
T1 chain: LLVY

T2: Glt-AAF-MCA
T2 chain: AAF

T3: Suc(OMe)-AAPV-MCA
T3 chain: AAPV

T4: Z-LLE-MCA
T4 chain: LLE

T5: Boc-FSR-MCA
T5 chain: FSR


What was measured:
[1] = biological target: Aspergillus niger 19 kDa protease (Aspergillus niger); assay: cell-based or functional assay
Suc-LLVY-MCA = biological target: T1, Suc-LLVY-MCA
Glt-AAF-MCA = biological target: T2, Glt-AAF-MCA
Suc(OMe)-AAPV-MCA = biological target: T3, Suc(OMe)-AAPV-MCA
Z-LLE-MCA = biological target: T4, Z-LLE-MCA
Boc-FSR-MCA = biological target: T5, Boc-FSR-MCA

Row | residual activity (%) [1] [%] | Molecule | substrate specificity: increase of fluorescent strength, relative (column has no head) (Suc-LLVY-MCA) [%] | substrate specificity: increase of fluorescent strength, relative (column has no head) (Glt-AAF-MCA) [%] | substrate specificity: increase of fluorescent strength, relative (column has no head) (Suc(OMe)-AAPV-MCA) [%] | substrate specificity: increase of fluorescent strength, relative (column has no head) (Z-LLE-MCA) [%] | substrate specificity: increase of fluorescent strength, relative (column has no head) (Boc-FSR-MCA) [%]
1 | 91 | pepstatin A (peptide) | – | – | – | – | –
2 | 89 | leupeptin (peptide) | – | – | – | – | –
3 | – | Aspergillus niger 19 kDa protease (protein) SPIPSYSRPGRGQHFQDAYGFAEACIAGDRMEIAGQTGMSPTSTEVPPTLEEEVAQAFNNINEVILYTLEKAKPDLRASVKSGWDRVVKIRTYHVQLPQTREKIIGLMVENVKKWCPDHQPTWTMLGIEALPFEGQNLEIEVDVFLG | 100.0 | 1.6 | 0.2 | 0.1 | 0.3

— US20130122545A1
